Source: patent publication US20220220218A1 (JIANGSU HENGRUI MEDICINE, published 2022)
Numbering of substitutions follows the chain as printed.

B1: Hab110.23 (antibody, V domains shown)
VH: EVQLVQSGAEVKKPGASVKVSCKASGYTFTSYTMHWVRQAPGQRLEWIGYINPNSFYIEYNQKFKDRATLTADTSASTAYMELSSLRSEDTAVYYCARGDYDLFYDMDNWGQGTTVTVSS
VL: DIQMTQSPSSLSASVGDRVTITCRASQDIGNSLNWLQQKPGKAIKRLIYATFRLDSGVPSRFSGSRSGTEYTLTISSLQPEDFATYYCQQYASFPWTFGGGTKVEIK
notes: VL2 + VH3; recombined with human heavy and light constant regions
B2: Hab127.32 (antibody, V domains shown)
VH: EVQLVQSGAEVKKPGASVKVSCKASGYTFTAYFMNWVMQAPGQGLEWMGRIYHNNGDTFYSQKFKGRVTMTVDKSTSTVYMELSSLRSEDTAVYYCATSYVGDWGQGTTVTVSS
VL: B1 VL with N31D, K42G, I44L, F52S, R53S, R66G, Q89L
notes: VL3 + VH2; recombined with human heavy and light constant regions
B3: Hab127.31h (antibody, V domains shown)
VH: B2 VH with M38R, N54L, G56V
VL: B1 VL with N31D, K42G, I44L, F52S, R53S, R66G, Q89L
notes: VL3 + VH1h, HCDR2 hot-spot variant; full-length antibody
B4: Hab127.31c (antibody, V domains shown)
VH: B2 VH with M38R, N55T
VL: B1 VL with N31D, K42G, I44L, F52S, R53S, R66G, Q89L
notes: VL3 + VH1c, HCDR2 hot-spot variant; full-length antibody
B5: Hab110.31 (antibody, V domains shown)
VH: B1 VH with I48M, A68V, L70I, A72R
VL: B1 VL with K42G, T85D
notes: VL3 + VH1; recombined with human heavy and light constant regions
B6: Hab127.31 (antibody, V domains shown)
VH: B2 VH with M38R
VL: B1 VL with N31D, K42G, I44L, F52S, R53S, R66G, Q89L
notes: as for B5
B7: Hab127.43 (antibody, V domains shown)
VH: B2 VH with M48I, V68A, M70L
VL: B1 VL with N31D, K42G, I44L, F52S, R53S, R66G, T69S, E70D, Q89L
notes: VL4 + VH3; recombined with human heavy and light constant regions
B8: Hab127.31i (antibody, V domains shown)
VH: B2 VH with M38R, N54H, G56V
VL: B1 VL with N31D, K42G, I44L, F52S, R53S, R66G, Q89L
notes: VL3 + VH1i, HCDR2 hot-spot variant; full-length antibody
B9: Hab127.14 (antibody, V domains shown)
VH: B2 VH with G44S, M48I, V68A, M70L, S84R
VL: B1 VL with N31D, L36Y, I44P, F52S, R53S, R66G, Y71F, Q89L
notes: VL1 + VH4; recombined with human heavy and light constant regions
B10: Hab127.31g (antibody, V domains shown)
VH: B2 VH with M38R, N54Q, G56V
VL: B1 VL with N31D, K42G, I44L, F52S, R53S, R66G, Q89L
notes: VL3 + VH1g, HCDR2 hot-spot variant; full-length antibody
B11: Hab110.34 (antibody, V domains shown)
VH: B1 VH with R67K
VL: B1 VL with K42G, T85D
notes: VL3 + VH4; recombined with human heavy and light constant regions
B12: Hab127.44 (antibody, V domains shown)
VH: B2 VH with G44S, M48I, V68A, M70L, S84R
VL: B1 VL with N31D, K42G, I44L, F52S, R53S, R66G, T69S, E70D, Q89L
notes: VL4 + VH4; recombined with human heavy and light constant regions
B13: Hab127.34 (antibody, V domains shown)
VH: B2 VH with G44S, M48I, V68A, M70L, S84R
VL: B1 VL with N31D, K42G, I44L, F52S, R53S, R66G, Q89L
notes: as for B11
B14: Hab127.41 (antibody, V domains shown)
VH: B2 VH with M38R
VL: B1 VL with N31D, K42G, I44L, F52S, R53S, R66G, T69S, E70D, Q89L
notes: VL4 + VH1; recombined with human heavy and light constant regions
B15: Hab110.24 (antibody, V domains shown)
VH: B1 VH with R67K
VL: B1 VL
notes: VL2 + VH4; recombined with human heavy and light constant regions
B16: Hab110.32 (antibody, V domains shown)
VH: B1 VH with I48M, A68V, L70I
VL: B1 VL with K42G, T85D
notes: as for B2
B17: Hab127.24 (antibody, V domains shown)
VH: B2 VH with G44S, M48I, V68A, M70L, S84R
VL: B1 VL with N31D, I44P, F52S, R53S, R66G, Q89L
notes: as for B15
B18: Hab110.25 (antibody, V domains shown)
VH: B1 VH with R38K, R44G, R67K
VL: B1 VL
notes: VL2 + VH5; recombined with human heavy and light constant regions
B19: Hab127.21 (antibody, V domains shown)
VH: B2 VH with M38R
VL: B1 VL with N31D, I44P, F52S, R53S, R66G, Q89L
notes: VL2 + VH1; recombined with human heavy and light constant regions
B20: Hab127.33 (antibody, V domains shown)
VH: B2 VH with M48I, V68A, M70L
VL: B1 VL with N31D, K42G, I44L, F52S, R53S, R66G, Q89L
notes: VL3 + VH3; recombined with human heavy and light constant regions
B21: Hab127.31a (antibody, V domains shown)
VH: B2 VH with M38R, N55Q
VL: B1 VL with N31D, K42G, I44L, F52S, R53S, R66G, Q89L
notes: VL3 + VH1a, HCDR2 hot-spot variant; full-length antibody
B22: Hab127.22 (antibody, V domains shown)
VH: B2 VH
VL: B1 VL with N31D, I44P, F52S, R53S, R66G, Q89L
notes: VL2 + VH2; recombined with human heavy and light constant regions
B23: Hab127.31b (antibody, V domains shown)
VH: B2 VH with M38R, N55L
VL: B1 VL with N31D, K42G, I44L, F52S, R53S, R66G, Q89L
notes: VL3 + VH1b, HCDR2 hot-spot variant; full-length antibody
B24: Hab127.42 (antibody, V domains shown)
VH: B2 VH
VL: B1 VL with N31D, K42G, I44L, F52S, R53S, R66G, T69S, E70D, Q89L
notes: VL4 + VH2; recombined with human heavy and light constant regions
B25: Hab127.13 (antibody, V domains shown)
VH: B2 VH with M48I, V68A, M70L
VL: B1 VL with N31D, L36Y, I44P, F52S, R53S, R66G, Y71F, Q89L
notes: VL1 + VH3; recombined with human heavy and light constant regions
B26: Hab110.35 (antibody, V domains shown)
VH: B1 VH with R38K, R44G, R67K
VL: B1 VL with K42G, T85D
notes: VL3 + VH5; recombined with human heavy and light constant regions
B27: Hab127.31f (antibody, V domains shown)
VH: B2 VH with M38R, N55H
VL: B1 VL with N31D, K42G, I44L, F52S, R53S, R66G, Q89L
notes: VL3 + VH1f, HCDR2 hot-spot variant; full-length antibody
B28: Hab127.31e (antibody, V domains shown)
VH: B2 VH with M38R, N55E
VL: B1 VL with N31D, K42G, I44L, F52S, R53S, R66G, Q89L
notes: VL3 + VH1e, HCDR2 hot-spot variant; full-length antibody
B29: Hab110.22 (antibody, V domains shown)
VH: B1 VH with I48M, A68V, L70I
VL: B1 VL
notes: as for B22
B30: Hab127.23 (antibody, V domains shown)
VH: B2 VH with M48I, V68A, M70L
VL: B1 VL with N31D, I44P, F52S, R53S, R66G, Q89L
notes: as for B1
B31: CH108 (antibody, V domains shown)
VH: QVQLKQSGPGLVQPSQSLSITCTVFGFSLKSYGIQWVRQSPGKGLEWLGVIWSGGSADYNAAFISRLSISKDNSKSQVFFKMNSLQGDDTAIYYCAGQYGSVWGQGTSVTVSS
VL: DIQMTQSPSSLSASLGERVSLTCRASQDIGDRLNWLQQEPDGTIKRLIYATSSLDSGVPKRFSGSRSGSDYSLTISSLESEDFVDYYCLQYAGSWTFGGGTKLEIK
notes: also called chimeric antibody of mab108

target: T1, human CD73 (huCD73) protein, antigen of the Biacore assay (human, UniProt P21589 27-547, limits assumed); assay: SPR Biacore T200; antibody captured on Protein A chip, CD73 in flow; 1:1 Langmuir
T1 construct: also called human CD73 antigen
T1 sequence (looked up): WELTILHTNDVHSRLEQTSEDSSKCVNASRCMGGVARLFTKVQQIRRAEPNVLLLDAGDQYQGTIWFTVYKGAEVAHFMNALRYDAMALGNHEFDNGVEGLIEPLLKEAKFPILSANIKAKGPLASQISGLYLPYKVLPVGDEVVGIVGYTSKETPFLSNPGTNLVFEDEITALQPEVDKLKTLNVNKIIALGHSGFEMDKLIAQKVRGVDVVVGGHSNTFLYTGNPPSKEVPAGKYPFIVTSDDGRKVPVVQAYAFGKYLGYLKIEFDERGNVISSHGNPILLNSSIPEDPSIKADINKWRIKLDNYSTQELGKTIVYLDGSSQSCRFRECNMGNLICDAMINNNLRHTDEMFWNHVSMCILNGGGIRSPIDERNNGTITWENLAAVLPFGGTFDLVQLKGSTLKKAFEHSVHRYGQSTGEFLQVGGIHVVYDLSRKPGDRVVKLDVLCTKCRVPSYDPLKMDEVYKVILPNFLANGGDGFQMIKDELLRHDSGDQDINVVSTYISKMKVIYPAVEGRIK
Text: In this experiment, Biacore instrument was used to determine the affinity of the humanized anti-CD73 antibodies to be tested with human CD73 (huCD73) and monkey CD73 (cynoCD73).
A certain amount of test antibody was affinity-captured with Protein A biosensing chip (Cat. #29127556, GE), and then a certain concentration of human or monkey CD73 antigen was allowed to flow through the surface of the chip. The reaction signals were detected in real time with Biacore instrument (Biacore T200, GE) to generate a binding and dissociation curve. At the end of each cycle, after the dissociation was completed, the biosensor chip was washed and regenerated with Glycine-HCl, pH1.5 (Cat. #BR-1003-54, GE). The running buffer for the assay was 1×HBS-EP buffer solution (Cat. #BR-1001-88, GE).
The data obtained from the experiment was fitted against (1:1) Langmuir model using GE Biacore T200 Evaluation version 3.0 software, and the affinity values were obtained, as shown in Table 12 and Table 13 for details.

Binder	Kd [nM]	koff [s⁻¹]	kon [M⁻¹ s⁻¹]
B1	0.166	5.43e-05	327000
B2	0.277	4.6e-05	166000
B3	0.441	6.66e-05	151000
B4	0.205	4.76e-05	232000
B5	0.161	5.86e-05	364000
B6	0.257	4.2e-05	163000
B7	0.15	3.58e-05	239000
B8	0.585	7.93e-05	136000
B9	0.847	0.000118	140000
B10	0.319	5.18e-05	163000
B11	0.228	8.16e-05	358000
B12	0.18	4.15e-05	230000
B13	0.22	3.58e-05	163000
B14	0.191	4.39e-05	230000
B15	0.188	6.2e-05	330000
B16	0.188	6.94e-05	370000

Binder	Kd [nM]	koff [s⁻¹]	kon [M⁻¹ s⁻¹]
B17	0.28	4.48e-05	160000
B18	0.223	7.79e-05	349000
B19	0.333	5.4e-05	162000
B20	0.211	3.69e-05	175000
B21	0.219	4.8e-05	219000
B22	0.292	4.86e-05	166000
B23	0.204	4.48e-05	220000
B24	0.166	3.94e-05	238000
B25	0.79	0.000119	150000
B26	0.244	9.4e-05	385000
B27	0.193	4.33e-05	224000
B28	0.212	3.75e-05	177000
B29	0.147	4.95e-05	338000
B30	0.276	4.59e-05	166000
B31	0.365	5.82e-05	160000
